Numbering of substitutions follows the chain as printed.
T1: KRAS Q61H peptide on HLA-A*01:01 (human)
T1 peptide: ILDTAGHEEY

B1: TCR-1 (TCR, V domains shown)
Valpha: KVTQAQTEISVVEKEDVTLDCVYETRDTTYYLFWYKQPPSGELVFLIRRNSFDEQNEISGRYSWNFQKSTSSFNFTITASQVVDSAVYFCALSEANQAGTALIFGKGTTLSVSS
Vbeta: EAQVTQNPRYLITVTGKKLTVTCSQNMNHEYMSWYRQDPGLGLRQIYYSMNVEVTDKGDVPEGYKVSRKEKRNFPLILESPSPNQTSLYFCASSRKVPPVYGYTFGSGTRLTVV
B2: TCR-3 (TCR, V domains shown)
Valpha: AQKVTQAQTEISVVEKEDVTLDCVYETRDTTYYLFWYKQPPSGELVFLIRRNSFDEQNEISGRYSWNFQKSTSSFNFTITASQVVDSAVYFCALSEAKAAGNKLTFGGGTRVLVKP
Vbeta: B1 Vbeta with V97L, V100T
B3: TCR-2 (TCR, V domains shown)
Valpha: B1 Valpha
Vbeta: B1 Vbeta with K96R, V97W, V100T, Y101D, G102T, Y103Q, T104Y, S107P, V114L

Biological target: T1, KRAS Q61H peptide on HLA-A*01:01
Test: cytokine release

Row | binding result | Binder
1 | recognises | B1
2 | recognises | B2
3 | recognises | B3

From patent EP4649952A1 (dated 2025)
